Columns and labels:
Experiment in all cases: EMSA; 0.25 nmol RNA in 10 ul; peptide:RNA molar ratio 0-1
Conditions in all cases: hairpin
Con-P2 = target: T1, Con-P2
T1 chain: ARPLEHGSDKAT

Con-P1 = target: T2, Con-P1
T2 chain: RRQRRTSKLMKR

Tat-P = target: T3, Tat-P (HIV, UniProt P69698)
T3 chain: YGRKKRRQRRR

GCCAGAUCUGAGCCUGGGAGCUCUCUGGC (structured_RNA) [TAR RNA 29mer]: no binding (Con-P2); no binding (Con-P1); binds (Tat-P).

Source: paper PMC1308866, “Inhibition of HIV derived lentiviral production by TAR RNA binding domain of TAT protein”
